Reference: patent US20050002904A1, “Uses of vascular endothelial growth factor and type I collagen inducible protein (VCIP)” (priority 2003, published 2005)

Tested on: VCIP
Assay: VCIP mRNA induction by growth factors and cytokines in monolayer cells
Assay type: cell-based, human
Settings: 6 h, northern blot
Description: FIGS. 1A-M show expression analysis and predicted amino acid sequence of VEGF and type I collagen inducible protein (VCIP). FIG. 1A: HUVECs were embedded into three-dimensional type I collagen gel in the presence of 20% adult human serum, 1× ITS and stimulated with VEGF^165 (100 ng/ml). Total RNA was prepared at the indicated time points. Northern blots were hybridized with a fragment of the VCIP (clone-33A) cDNA probe. The transcript size (3.4 kb) is indicated on the right. The numbers at the bottom of the gel represent the fold increase in VCIP mRNA levels, as compared with untreated cells. […] Total RNA was isolated at indicated time points and subjected to VCIP northern blot analysis. […] FIG. 1E: Poly(A)^+ RNA prepared from various human tissues was subjected to VCIP northern blot analysis by hybridization with the clone-33A cDNA probe. FIG. 1F: The blot shown in FIG. 1E was re-hybridized with a GAPDH probe, showing that equal amounts of RNA were loaded across the lanes. FIG. 1G: Detection of VCIP mRNA by RT-PCR (20 cycles): monolayer endothelial cells were treated for 30 min with: (1) untreated, (2) bFGF (20 ng/ml), (3) VEGF^165 (100 ng/ml), (4) PMA (20 ng/ml), (5) bFGF (20 ng/ml)+VEGF (100 ng/ml), (6) bFGF (20 ng/ml)+PMA (20 ng/ml), (7) VEGF (100 ng/ml)+PMA (20 ng/ml) and (8) bFGF (20 ng/ml)+VEGF (100 ng/ml)+PMA (20 ng/ml). […]

B1: EGF: growth factor (protein, UniProt P01133 23-1207, looked up)
Pro-epidermal growth factor: PQHWSCPEGTLAGNGNSTCVGPAPFLIFSHGNSIFRIDTEGTNYEQLVVDAGVSVIMDFHYNEKRIYWVDLERQLLQRVFLNGSRQERVCNIEKNVSGMAINWINEEVIWSNQQEGIITVTDMKGNNSHILLSALKYPANVAVDPVERFIFWSSEVAGSLYRADLDGVGVKALLETSEKITAVSLDVLDKRLFWIQYNREGSNSLICSCDYDGGSVHISKHPTQHNLFAMSLFGDRIFYSTWKMKTIWIANKHTGKDMVRINLHSSFVPLGELKVVHPLAQPKAEDDTWEPEQKLCKLRKGNCSSTVCGQDLQSHLCMCAEGYALSRDRKYCEDVNECAFWNHGCTLGCKNTPGSYYCTCPVGFVLLPDGKRCHQLVSCPRNVSECSHDCVLTSEGPLCFCPEGSVLERDGKTCSGCSSPDNGGCSQLCVPLSPVSWECDCFPGYDLQLDEKSCAASGPQPFLLFANSQDIRHMHFDGTDYGTLLSQQMGMVYALDHDPVENKIYFAHTALKWIERANMDGSQRERLIEEGVDVPEGLAVDWIGRRFYWTDRGKSLIGRSDLNGKRSKIITKENISQPRGIAVHPMAKRLFWTDTGINPRIESSSLQGLGRLVIASSDLIWPSGITIDFLTDKLYWCDAKQSVIEMANLDGSKRRRLTQNDVGHPFAVAVFEDYVWFSDWAMPSVMRVNKRTGKDRVRLQGSMLKPSSLVVVHPLAKPGADPCLYQNGGCEHICKKRLGTAWCSCREGFMKASDGKTCLALDGHQLLAGGEVDLKNQVTPLDILSKTRVSEDNITESQHMLVAEIMVSDQDDCAPVGCSMYARCISEGEDATCQCLKGFAGDGKLCSDIDECEMGVPVCPPASSKCINTEGGYVCRCSEGYQGDGIHCLDIDECQLGEHSCGENASCTNTEGGYTCMCAGRLSEPGLICPDSTPPPHLREDDHHYSVRNSDSECPLSHDGYCLHDGVCMYIEALDKYACNCVVGYIGERCQYRDLKWWELRHAGHGQQQKVIVVAVCVVVLVMLLLLSLWGAHYYRTQKLLSKNPKNPYEESSRDVRSRRPADTEDGMSSCPQPWFVVIKEHQDLKNGGQPVAGEDGQAADGSMQPTSWRQEPQLCGMGTEQGCWIPVSSDKGSCPQVMERSFHMPSYGTQTLEGGVEKPHSLLSANPLWQQRALDPPHQMELTQ
modifications: Pro-epidermal growth factor
A431 epidermoid carcinoma cells
  induction of VCIP expression: strongly induced
HdMVECs
  induction of VCIP expression: but not to EGF
